Source: US20260216366A1, “CONJUGATE AND USES THEREOF” (Full-Life Technologies UK Limited, priority 2022, published 2026)

How the values were obtained:
[1] = Pharmacokinetic study of CLDN18.2-linker conjugates (serum ELISA, NCA); type: in vivo, BALB/c mice; conditions: FIG. 2; CLDN18.2 conjugate of the named linker compared to the control group
Experimental: The in vivo pharmacokinetic profile of the CLDN18.2-linker conjugates was analyzed. Briefly, BALB/c mice were administered with the conjugates by intravenous injection at a dose of about 1 mg/kg. Then, whole blood of the animal was collected at different time points over 48 hours.
(§1) The whole blood was collected into a tube without anticoagulation and maintained at room temperature for more than 30 minutes, followed by centrifuge at approximately 5000 rpm at 4° C. for 5 minutes to obtain serum. Concentration of the conjugates in serum was then measured by ELISA using HRP-labeled goat anti-alpaca IgG VHH domain secondary antibody. The data was further analyzed using PK Solver software, and the […] (NCA) was used to evaluate the pharmacokinetic parameters, as shown in Table 7 and FIG. 2.

CLDN18.2 HEK293T cells = experiment: In vivo SPECT imaging of 111In-labeled CLDN18.2 conjugates; design: species or system female athymic nude mice; conditions: FIG. 4, 10 MBq/mouse i.v., over 48 hours, compared to the control group
Experimental: In vivo biodistribution of the CLDN18.2 conjugates was analyzed by SPECT imaging via ^111In labeling. Briefly, the CLDN18.2 conjugates were labeled by ^111In at 30° C. for 60 min and purification by NAP-5 column. followed by analysis of radioactive purity through radio-TLC and radio-HPLC on the same day of labelling. The release criteria for radio-labelled sample was ≥90% radiochemical purity.
For the imaging study, female athymic nude mice (approximately 6-8 weeks old) were each inoculated with 5×10^6 CLDN18.2 HEK293T cells via subcutaneous injection into the shoulder. When the tumor volume reached to about 200 to 300 mm^3, the animal was injected with the labeled conjugate at a dose of 10 MBq/mouse by a single bolus intravenous injection in tail vein. Animals were then subject to whole-body static SPECT followed by CT at different time points under isoflurane anaesthesia. […] In addition, the tumor/kidney ratio was increased around 5-10 folds compared to the control group.

[2] = Pharmacokinetic study of FAP-linker conjugates (serum ELISA, NCA); type: in vivo, BALB/c mice; conditions: FIG. 3; FAP conjugate of the named linker compared to the control group
Experimental: he in vivo pharmacokinetic profile of the FAP-linker conjugates was analyzed. Briefly, BALB/c mice were administered with the conjugates by intravenous injection at a dose of about 1 mg/kg. Then, whole blood of the animal was collected at different time periods over 48 hours.
as §1, with “centrifugated” for “centrifuge”, “8” for “7”, “3.” for “2.”

[3] = system: FAP expressing HEK293-hFAP cells; experiment: In vivo SPECT imaging of 177Lu-labeled FAP conjugates; design: species or system female athymic nude mice; conditions: FIG. 5, 30 MBq/mouse i.v., at different time points
Experimental: In vivo biodistribution of FAP conjugates was analyzed by SPECT imaging via ^177Lu labeling. Briefly, the FAP conjugates were labeled by ^177Lu with a molar activity of 1 MBq/μg at 37° C. for 60 min and purified by size-exclusion chromatography, followed by analysis of radioactive purity through radio-TLC and radio-HPLC on the same day of labelling. The release criteria for radio-labelled sample was ≥90% radiochemical purity.
For the imaging study, female athymic nude mice (approximately 6-8 weeks old) were each inoculated with 5×10^6 FAP expressing HEK293-hFAP cells via subcutaneous injection into the shoulder. When the tumor volume reached to about 150 to 250 mm^3, the animal was injected with the labeled conjugate at a dose of 30 MBq/mouse by a single bolus intravenous injection in tail vein. Animals were then subject to whole-body static SPECT followed by CT at different time points under isoflurane anaesthesia.

human FAP-hFc = target: T1, human FAP-hFc (human, UniProt Q12884 26-760); experiment: ELISA, plate coated with human FAP-hFc, HRP anti-sdAb detection
T1 construct: Coated on the ELISA plate as human FAP-hFc; also called FAP-alpha; not shown: human Fc (hFc)
T1 sequence (looked up): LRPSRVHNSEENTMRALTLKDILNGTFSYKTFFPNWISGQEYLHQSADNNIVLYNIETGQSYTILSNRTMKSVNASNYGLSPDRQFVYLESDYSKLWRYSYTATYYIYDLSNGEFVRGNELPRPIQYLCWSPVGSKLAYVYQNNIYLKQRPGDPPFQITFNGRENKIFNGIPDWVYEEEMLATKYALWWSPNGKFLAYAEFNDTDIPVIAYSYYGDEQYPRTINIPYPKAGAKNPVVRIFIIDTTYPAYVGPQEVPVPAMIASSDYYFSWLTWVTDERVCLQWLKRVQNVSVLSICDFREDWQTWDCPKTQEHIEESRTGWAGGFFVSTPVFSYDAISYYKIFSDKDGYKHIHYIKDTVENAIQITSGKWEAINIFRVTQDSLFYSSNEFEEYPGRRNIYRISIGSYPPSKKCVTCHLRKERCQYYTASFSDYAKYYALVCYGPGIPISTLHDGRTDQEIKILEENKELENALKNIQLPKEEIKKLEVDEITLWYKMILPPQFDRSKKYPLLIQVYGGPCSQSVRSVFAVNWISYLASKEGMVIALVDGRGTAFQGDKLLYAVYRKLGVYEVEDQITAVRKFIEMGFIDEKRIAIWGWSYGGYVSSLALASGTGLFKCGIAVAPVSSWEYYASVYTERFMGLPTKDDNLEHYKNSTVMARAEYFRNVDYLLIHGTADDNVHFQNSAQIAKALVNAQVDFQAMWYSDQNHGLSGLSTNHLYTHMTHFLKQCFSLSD
Experimental: Binding affinities of the prepared conjugates with tumor antigen was evaluated by ELISA. […] On the next day, the plate was washed by 0.05% PBST and blocked by 10% StartingBlock buffer (Thermo, #37538) at room temperature for 1 hr. Then, 100 μL of serial diluted conjugate samples in 1% StartingBlock buffer was added to the plate. The plate was further incubated at room temperature for 2 hrs under shaking at 100 rpm and washed by 0.05% PBST. Then 100 μL 0.4 μg/mL HRP-conjugated anti-sdAb secondary antibody (Jackson, #128-035-232) was added and subject to 1 hr incubation at room temperature under shaking at 100 rpm. The plate was then washed by 0.05% PBST and developed using TMB solution (KPL, #5120-00820).

Molecule: O=C(O)CCC(NC(=O)C(CCCCNC(=O)CCCc1ccc(I)cc1)NC(=O)CNC(=O)CCC(C(=O)O)N1CCN(CC(=O)O)CCN(CC(=O)O)CCN(CC(=O)O)CC1)C(=O)NCc1ccc(N=C=S)cc1 (centres unmarked) [L007]
- blood circulation of the CLDN18.2 conjugates [1]: significantly prolonged blood circulation
- retention of the CLDN18.2 conjugates in tumor (CLDN18.2 HEK293T cells): significantly increased retention
- blood circulation of the FAP conjugates [2]: significantly prolonged blood circulation
- retention of the FAP conjugates in tumor [3]: increasing retention

Molecule: O=C(O)CN1CCN(CC(=O)O)CCN(C(CCC(=O)NCC(=O)NC(CCCCNC(=O)CCCc2ccc(I)cc2)C(=O)NCc2ccc(N=C=S)cc2)C(=O)O)CCN(CC(=O)O)CC1 (centres unmarked) [L009]
- blood circulation of the CLDN18.2 conjugates [1]: significantly prolonged blood circulation
- retention of the CLDN18.2 conjugates in tumor (CLDN18.2 HEK293T cells): significantly increased retention

B1: FAP-L007 (VHH)
VHH: QVQLLESGGGLVQPGGSLRLSCAASGFGFGNSLMSWVRRAPGKGLEWVSTIYPRGSFTDYADSVKGRFTISRDNSRNTLYLQMNSLRAEDTAVYYCATGWGRSSDYDPPGQGTLVTVSS
modifications: functional linker L007 conjugated to the sdAb, residue not stated; DOL 0.68
notes: also called FAP sdAb-linker L007 conjugate
- EC50 (human FAP-hFc): 0.0603 nM

B2: FAP-DOTAGA (VHH)
VHH: QVQLLESGGGLVQPGGSLRLSCAASGFGFGNSLMSWVRRAPGKGLEWVSTIYPRGSFTDYADSVKGRFTISRDNSRNTLYLQMNSLRAEDTAVYYCATGWGRSSDYDPPGQGTLVTVSS
modifications: DOTAGA chelator conjugated to the sdAb, residue not stated; DOL 0.42
notes: also called FAP sdAb conjugated with DOTAGA (control)
- EC50 (human FAP-hFc): 0.0553 nM
